Measured values taken from US20070036799A1 (MacroGenics, published 2007).
Like-named read-outs stand apart in the source and are kept apart here. Blank lines part the entries; values can stand above or below the binder they belong to.

How the values were obtained:
[1] = target: T1, soluble monomeric FcγRIIIA-linker-AVITAG (158V), biotinylated (human, UniProt P08637 17-203, biotin on the AVITAG lysine (BirA)); assay: ELISA
T1 construct: range 1-203; used as monomer in ELISA and BIAcore; also called FcR3A; FcRIIIa; not shown: linker-AVITAG (15 aa AVITAG) at the C-terminus; only the coding oligonucleotide is given
T1 sequence (P08637 17-203 F176V limits assumed, form in doubt): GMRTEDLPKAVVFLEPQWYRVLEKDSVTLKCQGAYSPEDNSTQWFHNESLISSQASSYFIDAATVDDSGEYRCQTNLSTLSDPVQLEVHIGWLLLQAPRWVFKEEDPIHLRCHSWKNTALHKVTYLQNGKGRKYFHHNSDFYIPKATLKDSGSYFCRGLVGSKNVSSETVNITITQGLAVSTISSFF

[2] = target: T2, FcγRIIB-Fc fusion protein (soluble dimeric FcγRIIB) (human, UniProt P31994 43-217); assay: ELISA
T2 construct: extracellular domain; the suffix agl in 2bfcagl is not explained; also called FcRIIB-Fc; FcγRIIB-G2; not shown: hinge-CH2-CH3 domain of human IgG2
T2 sequence (looked up): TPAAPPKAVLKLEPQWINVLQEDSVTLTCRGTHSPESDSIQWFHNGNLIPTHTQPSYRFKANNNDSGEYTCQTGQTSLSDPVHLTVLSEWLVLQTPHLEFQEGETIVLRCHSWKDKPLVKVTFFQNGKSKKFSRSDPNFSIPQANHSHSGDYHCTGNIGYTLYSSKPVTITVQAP

[3] = target: T1, soluble monomeric …; assay: SPR
[4] = target: T2, FcγRIIB-Fc fusion protein (soluble …); assay: SPR
[5] = target: T1, soluble monomeric …; assay: ELISA; remark: listed apart in the source
[6] = target: T2, FcγRIIB-Fc fusion protein (soluble …); assay: ELISA; remark: listed apart in the source
[7] = target: T1, soluble monomeric …; assay: SPR; remark: listed apart in the source
[8] = target: T2, FcγRIIB-Fc fusion protein (soluble …); assay: ELISA; remark: listed apart in the source
[9] = target: T2, FcγRIIB-Fc fusion protein (soluble …); assay: SPR; remark: listed apart in the source
[10] = target: T1, soluble monomeric …; assay: ELISA; remark: listed apart in the source

B1: ch4-4-20 G316D, A378V, D399E (antibody)
chain: ASTKGPSVFPLAPSSKSTSGGTAALGCLVKDYFPEPVTVSWNSGALTSGVHTFPAVLQSSGLYSLSSVVTVPSSSLGTQTYICNVNHKPSNTKVDKKVEPKSCDKTHTCPPCPAPELLGGPSVFLFPPKPKDTLMISRTPEVTCVVVDVSHEDPEVKFNWYVDGVEVHNAKTKPREEQYNSTYRVVSVLTVLHQDWLNDKEYKCKVSNKALPAPIEKTISKAKGQPREPQVYTLPPSRDELTKNQVSLTCLVKGFYPSDIVVEWESNGQPENNYKTTPPVLESDGSFFLYSKLTVDKSRWQQGNVFSCSVMHEALHNHYTQKSLSLSPGK
fold vs wt [1]: 1.5 x increase
fold vs wt [2]: 14 x increase
Kd [3]: 72 nM
koff [3]: 0.117 s⁻¹
Kd [4]: 46 nM
koff [4]: 0.06 s⁻¹
fold vs wt [5]: 1.5 X
fold vs wt [6]: 14 X

B2: ch4-4-20 K334E, T359N, T366S (antibody)
chain: ASTKGPSVFPLAPSSKSTSGGTAALGCLVKDYFPEPVTVSWNSGALTSGVHTFPAVLQSSGLYSLSSVVTVPSSSLGTQTYICNVNHKPSNTKVDKKVEPKSCDKTHTCPPCPAPELLGGPSVFLFPPKPKDTLMISRTPEVTCVVVDVSHEDPEVKFNWYVDGVEVHNAKTKPREEQYNSTYRVVSVLTVLHQDWLNGKEYKCKVSNKALPAPIEETISKAKGQPREPQVYTLPPSRDELNKNQVSLSCLVKGFYPSDIAVEWESNGQPENNYKTTPPVLDSDGSFFLYSKLTVDKSRWQQGNVFSCSVMHEALHNHYTQKSLSLSPGK
fold vs wt [1]: 1.5 x increase
Kd [3]: 55.2 nM
koff [3]: 0.128 s⁻¹
Kd [4]: 72 nM
koff [4]: 0.11 s⁻¹
fold vs wt [5]: 1.5 X

B3: ch4-4-20 F243I, V379L, G420V (antibody)
chain: ASTKGPSVFPLAPSSKSTSGGTAALGCLVKDYFPEPVTVSWNSGALTSGVHTFPAVLQSSGLYSLSSVVTVPSSSLGTQTYICNVNHKPSNTKVDKKVEPKSCDKTHTCPPCPAPELLGGPSVFLIPPKPKDTLMISRTPEVTCVVVDVSHEDPEVKFNWYVDGVEVHNAKTKPREEQYNSTYRVVSVLTVLHQDWLNGKEYKCKVSNKALPAPIEKTISKAKGQPREPQVYTLPPSRDELTKNQVSLTCLVKGFYPSDIALEWESNGQPENNYKTTPPVLDSDGSFFLYSKLTVDKSRWQQVNVFSCSVMHEALHNHYTQKSLSLSPGK
Kd [4]: 93.4 nM
koff [4]: 0.101 s⁻¹

B5: ch4-4-20 V348M, K334N, F275I, Y202M, K147T (antibody)
chain: ASTKGPSVFPLAPSSKSTSGGTAALGCLVTDYFPEPVTVSWNSGALTSGVHTFPAVLQSSGLYSLSSVVTVPSSSLGTQTYICNMNHKPSNTKVDKKVEPKSCDKTHTCPPCPAPELLGGPSVFLFPPKPKDTLMISRTPEVTCVVVDVSHEDPEVKINWYVDGVEVHNAKTKPREEQYNSTYRVVSVLTVLHQDWLNGKEYKCKVSNKALPAPIENTISKAKGQPREPQMYTLPPSRDELTKNQVSLTCLVKGFYPSDIAVEWESNGQPENNYKTTPPVLDSDGSFFLYSKLTVDKSRWQQGNVFSCSVMHEALHNHYTQKSLSLSPGK
fold vs wt [1]: 0.5 x increase

B7: ch4-4-20 K288N, A330S, P396L (antibody)
chain: EPKSCDKTHTCPPCPAPELLGGPSVFLFPPKPKDTLMISRTPEVTCVVVDVSHEDPEVKFNWYVDGVEVHNANTKPREEQYNSTYRVVSVLTVLHQDWLNGKEYKCKVSNKALPSPIEKTISKAKGQPREPQVYTLPPSREEMTKNQVSLTCLVKGFYPSDIAVEWESNGQPENNYKTTPLVLDSDGSFFLYSKLTVDKSRWQQGNVFSCSVMHEALHNHYTQKSLSLSPGK
ELISA, OD [8]: 1.2 OD
Kd [9]: 41.3 nM
ELISA, OD [10]: 1 OD
Kd [4]: 33.4 nM

B8: ch4-4-20 E293V, Q295E, A327T (antibody)
chain: EPKSCDKTHTCPPCPAPELLGGPSVFLFPPKPKDTLMISRTPEVTCVVVDVSHEDPEVKFNWYVDGVEVHNAKTKPRVEEYNSTYRVVSVLTVLHQDWLNGKEYKCKVSNKTLPAPIEKTISKAKGQPREPQVYTLPPSREEMTKNQVSLTCLVKGFYPSDIAVEWESNGQPENNYKTTPPVLDSDGSFFLYSKLTVDKSRWQQGNVFSCSVMHEALHNHYTQKSLSLSPGK
Kd [4]: 86 nM

B10: ch4-4-20 K317N, F423-deleted (antibody)
chain: EPKSCDKTHTCPPCPAPELLGGPSVFLFPPKPKDTLMISRTPEVTCVVVDVSHEDPEVKFNWYVDGVEVHNAKTKPREEQYNSTYRVVSVLTVLHQDWLNGNEYKCKVSNKALPAPIEKTISKAKGQPREPQVYTLPPSREEMTKNQVSLTCLVKGFYPSDIAVEWESNGQPENNYKTTPPVLDSDGSFFLYSKLTVDKSRWQQGNVSCSVMHEALHNHYTQKSLSLSPGK
fold vs wt [2]: 7 x increase

B11: ch4-4-20 T215P, K274N, A287G, K334N, L365V, P396L (antibody)
chain: PEPKSCDKTHTCPPCPAPELLGGPSVFLFPPKPKDTLMISRTPEVTCVVVDVSHEDPEVNFNWYVDGVEVHNGKTKPREEQYNSTYRVVSVLTVLHQDWLNGKEYKCKVSNKALPAPIENTISKAKGQPREPQVYTLPPSRDELTKNQVSVTCLVKGFYPSDIAVEWESNGQPENNYKTTPLVLDSDGSFFLYSKLTVDKSRWQQGNVFSCSVMHEALHNHYTQKSLSLSPGK
fold vs wt [2]: 4 x increase

Further lines, results first:

Koff WT/Koff MUT [7]: 2.56 ratio
B4: ch4D5 MGFc0074 (F243L, R292P, V305I) (antibody)
chain: ASTKGPSVFPLAPSSKSTSGGTAALGCLVKDYFPEPVTVSWNSGALTSGVHTFPAVLQSSGLYSLSSVVTVPSSSLGTQTYICNVNHKPSNTKVDKKVEPKSCDKTHTCPPCPAPELLGGPSVFLLPPKPKDTLMISRTPEVTCVVVDVSHEDPEVKFNWYVDGVEVHNAKTKPPEEQYNSTYRVVSILTVLHQDWLNGKEYKCKVSNKALPAPIEKTISKAKGQPREPQVYTLPPSRDELTKNQVSLTCLVKGFYPSDIAVEWESNGQPENNYKTTPPVLDSDGSFFLYSKLTVDKSRWQQGNVFSCSVMHEALHNHYTQKSLSLSPGK

Koff WT/Koff MUT [7]: 10.1 ratio
B6: ch4D5 MGFc0088A (F243L, R292P, Y300L, P396L) (antibody)
chain: ASTKGPSVFPLAPSSKSTSGGTAALGCLVKDYFPEPVTVSWNSGALTSGVHTFPAVLQSSGLYSLSSVVTVPSSSLGTQTYICNVNHKPSNTKVDKKVEPKSCDKTHTCPPCPAPELLGGPSVFLLPPKPKDTLMISRTPEVTCVVVDVSHEDPEVKFNWYVDGVEVHNAKTKPPEEQYNSTLRVVSVLTVLHQDWLNGKEYKCKVSNKALPAPIEKTISKAKGQPREPQVYTLPPSRDELTKNQVSLTCLVKGFYPSDIAVEWESNGQPENNYKTTPLVLDSDGSFFLYSKLTVDKSRWQQGNVFSCSVMHEALHNHYTQKSLSLSPGK

Kd [3]: 125 nM
Kd [4]: 55.7 nM
fold vs wt [5]: 3.5 X
B9: ch4-4-20 Y319F, P352L, P396L (antibody)
chain: EPKSCDKTHTCPPCPAPELLGGPSVFLFPPKPKDTLMISRTPEVTCVVVDVSHEDPEVKFNWYVDGVEVHNAKTKPREEQYNSTYRVVSVLTVLHQDWLNGKEFKCKVSNKALPAPIEKTISKAKGQPREPQVYTLLPSREEMTKNQVSLTCLVKGFYPSDIAVEWESNGQPENNYKTTPLVLDSDGSFFLYSKLTVDKSRWQQGNVFSCSVMHEALHNHYTQKSLSLSPGK
